Measurements: article PMC6273323 (2016)
Non-standard residues stand in square brackets, D forms with d. No end group written: not given here. Phe(4-F) = N[C@@H](Cc1ccc(F)cc1)C(=O)O

Target: T1, DF*NNN fluorinated iNOS peptide
T1 chain: D[Phe(4-F)]NNN
Test: SPR

B1: SPSB2 (protein)
chain: MGQTALARGSSSTPTSQALYSDFSPPEGLEELLSAPPPDLVAQRHHGWNPKDCSENIDVKEGGLCFERRPVAQSTDGVRGKRGYSRGLHAWEISWPLEQRGTHAVVGVATALAPLQADHYAALLGSNSESWGWDIGRGKLYHQSKGLEAPQYPAGPQGEQLVVPERLLVVLDMEEGTLGYSIGGTYLGPAFRGLKGRTLYPSVSAVWGQCQVRIRYMGERRVEEPQSLLHLSRLCVRHALGDTRLGQISTLPLPPAMKRYLLYK
Kd: 3000 nM
